Test results: publication PMC10764323

Biological target: His-tAmSOD2 (Avicennia marina MnSOD, AmSOD2, without the mitochondrial transit peptide) (Avicennia marina)
Assay: SEC; gel filtration chromatography on a calibrated Biosil-250 analytical column, elution compared with standard proteins; native mass of almost 116 kDa against a single band of 26 kDa after SDS and DTT

Substance “His-tAmSOD2 (Avicennia marina MnSOD, AmSOD2, without the mitochondrial transit peptide) (enzyme)” has a stoichiometry N of 4.
